# T1: Mouse IL-18Rα ectodomain (amino acids 19-329), biotinylated (mouse, UniProt Q61098 19-329, biotin on the AviTag (BirA ligase))
# T1 construct: range 19-329; Secreted from Expi293 cells (H7 signal peptide removed); also called mIL-18Rα; mIL18Ra
# T1 sequence: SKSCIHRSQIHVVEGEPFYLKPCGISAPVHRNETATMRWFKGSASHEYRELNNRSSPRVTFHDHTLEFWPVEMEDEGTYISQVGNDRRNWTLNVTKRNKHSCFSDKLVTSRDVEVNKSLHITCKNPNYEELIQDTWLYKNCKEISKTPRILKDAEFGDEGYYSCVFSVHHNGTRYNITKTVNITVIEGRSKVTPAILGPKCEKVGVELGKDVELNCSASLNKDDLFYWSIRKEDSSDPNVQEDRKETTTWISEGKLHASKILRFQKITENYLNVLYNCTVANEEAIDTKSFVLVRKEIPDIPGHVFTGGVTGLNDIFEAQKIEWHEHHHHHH
# T2: Mouse IL-18BP (amino acids 31-194), biotinylated (mouse, UniProt Q9Z0M9 29-193, biotin on the AviTag (BirA ligase))
# T2 construct: also called mIL-18BP
# T2 sequence: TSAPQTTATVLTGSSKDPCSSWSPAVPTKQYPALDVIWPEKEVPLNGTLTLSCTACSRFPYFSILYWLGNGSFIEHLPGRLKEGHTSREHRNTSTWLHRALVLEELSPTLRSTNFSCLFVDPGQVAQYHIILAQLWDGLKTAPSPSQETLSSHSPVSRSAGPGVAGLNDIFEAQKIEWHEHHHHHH
# T3: Human IL-18BP (amino acids 31-194), biotinylated (human, UniProt O95998 31-194, biotin on the AviTag (BirA ligase) where used biotinylated)
# T3 construct: Soluble decoy receptor; also called hIL-18BP; recombinant IL-18BP
# T3 sequence: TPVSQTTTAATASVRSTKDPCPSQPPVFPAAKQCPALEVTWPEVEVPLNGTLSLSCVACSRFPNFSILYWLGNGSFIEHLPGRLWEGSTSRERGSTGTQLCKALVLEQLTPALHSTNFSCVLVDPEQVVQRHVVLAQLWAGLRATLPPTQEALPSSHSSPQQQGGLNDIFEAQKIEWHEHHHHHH
# T4: Human IL-18Rα ectodomain (amino acids 19-329), biotinylated (human, UniProt Q13478 19-329, biotin on the AviTag (BirA ligase))
# T4 construct: range 19-329; Secreted from insect cells (gp67 signal peptide removed); also called hIL-18Rα; hIL18Rα
# T4 sequence: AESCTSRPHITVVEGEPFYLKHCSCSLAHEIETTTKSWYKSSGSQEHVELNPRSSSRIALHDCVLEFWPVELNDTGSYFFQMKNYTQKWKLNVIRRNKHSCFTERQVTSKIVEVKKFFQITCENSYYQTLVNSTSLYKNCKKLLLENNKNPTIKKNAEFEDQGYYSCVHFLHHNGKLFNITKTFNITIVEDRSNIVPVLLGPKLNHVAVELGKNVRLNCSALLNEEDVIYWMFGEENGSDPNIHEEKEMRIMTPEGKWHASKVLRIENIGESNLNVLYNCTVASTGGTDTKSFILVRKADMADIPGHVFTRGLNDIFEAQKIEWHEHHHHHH
# What was measured:
# [1] = molecular target: T1, Mouse IL-18Rα ectodomain (amino acids …); assay: on-yeast binding isotherm (flow cytometry)
# Protocol: (§1) Individual colonies of IL-18 yeast were grown overnight at 30° C. in SDCAA liquid media and induced in SGCAA liquid media for 1 day at 20° C. IL-18 display levels on yeast were verified by flow cytometry using an anti-cMyc tag antibody (anti-myc-PE; Cell Signaling Technologies). Receptor staining with biotinylated IL-18Rα (with or without IL-18R β) or biotinylated IL-18BP was performed in PBS supplemented with 0.5% BSA and 2 mM EDTA (PBE) on ice. All analysis was performed on a Sony SA3800 flow cytometer.
# [2] = molecular target: T2, Mouse IL-18BP (amino acids 31-194), …; assay: on-yeast binding isotherms; 10 µM used for NBD; yeast-displayed variant; ratio computed with 10 µM put in for NBD
# Protocol: as §1
# [3] = molecular target: T2, Mouse IL-18BP (amino acids 31-194), …; assay: SPR; KD for IL-18BP over KD for IL-18Rα; SPR; ratio of two measured KD
# Protocol: (§2) Experiments were conducted using a Biacore T100 and carried out at 25° C. Biotinylated IL-18Rα or IL-18BP were immobilized onto a Biacore biotin capture chip (Series S CAP sensor chip, GE Healthcare) to yield an Rmax of ˜50 RU (IL-18Rα) or ˜10 RU (IL-18BP). Measurements were made with serial dilutions of the IL-18 variants in HEPES buffered Saline-P+buffer (10 mM HEPES pH 7.4, 150 mM NaCl, 0.005% surfactant P20). The surface was regenerated by three 60-sec injections of regeneration buffer (3/4 (v/v) 8M guanidine hydrochloride with 1/4 (v/v) 1M sodium hydroxide). Experiments were performed in multiple channels simultaneously for increased observations. All data were analyzed with the Biacore T100 evaluation software version 2.0 with a 1:1 Langmuir binding model.
# [4] = molecular target: T2, Mouse IL-18BP (amino acids 31-194), …; assay: SPR; KD ratio relative to WT IL-18; SPR; ratio normalized to WT
# Protocol: as §2
# [5] = molecular target: T2, Mouse IL-18BP (amino acids 31-194), …; assay: yeast binding isotherms and SPR; members per FIG. 11A legend
# Protocol: as §1, §2
# [6] = molecular target: T2, Mouse IL-18BP (amino acids 31-194), …; assay: SPR (Biacore T100), IL-18BP captured via biotin, IL-18 as analyte; SPR, soluble variant
# Protocol: as §2
# [7] = molecular target: T2, Mouse IL-18BP (amino acids 31-194), …; assay: SPR; range of a group, this end tied to A7 by the 9th table; m is a multiple of 1,000,000
# [8] = molecular target: T1, Mouse IL-18Rα ectodomain (amino acids …); assay: SPR (Biacore T100), receptor captured via biotin, IL-18 as analyte
# Protocol: as §2
# [9] = molecular target: T2, Mouse IL-18BP (amino acids 31-194), …; assay: on-yeast binding isotherms; KD ratio relative to WT IL-18; yeast-displayed variant; ratio normalized to WT, from the 10 µM placeholder
# Protocol: as §1
# [10] = molecular target: T3, Human IL-18BP (amino acids 31-194), …; assay: SPR; average of 2 studies
# [11] = molecular target: T4, Human IL-18Rα ectodomain (amino acids …); assay: SPR; average of 2 studies
# [12] = molecular target: T3, Human IL-18BP (amino acids 31-194), …; assay: on-yeast binding isotherm (flow cytometry), drawn summary table, column IL18BP (KD)
# Protocol: as §1
# [13] = molecular target: T4, Human IL-18Rα ectodomain (amino acids …); assay: on-yeast binding isotherm (flow cytometry), drawn summary table, IL18Rα (KD)
# Protocol: as §1
# [14] = molecular target: T3, Human IL-18BP (amino acids 31-194), …; assay: on-yeast binding isotherms; KD for IL-18BP over KD for IL-18Rα
# [15] = molecular target: T3, Human IL-18BP (amino acids 31-194), …; assay: SPR; KD ratio relative to WT IL-18
# Protocol: as §2
# (§3) To additionally characterize the receptor binding activities of the DR-IL-18 variants, the cytokines were expressed recombinantly and surface plasmon resonance for IL-18Rα and IL-18BP was performed (see FIG. 5B for representative traces).
# [16] = molecular target: T3, Human IL-18BP (amino acids 31-194), …; assay: SPR (Biacore T100), IL-18BP captured via biotin, IL-18 as analyte
# Protocol: as §2, §3
# [17] = molecular target: T3, Human IL-18BP (amino acids 31-194), …; assay: on-yeast binding isotherm (flow cytometry); members per FIG. 5A legend
# Protocol: as §1, §3
# [18] = molecular target: T3, Human IL-18BP (amino acids 31-194), …; assay: SPR, single-cycle injections of 1.5, 4.5, 13.5, 40.5 and 121.5 nM over immobilized biotinylated hIL-18BP; the sheet prints two constants, KD1 and KD2 (KD2 = 15.2 nM is the value in the text)
# Protocol: (§4) By contrast, very little binding is observed with the same variants and hIL-18BP (right).
# as §2
# [19] = molecular target: T3, Human IL-18BP (amino acids 31-194), …; assay: on-yeast binding isotherm (flow cytometry)
# [20] = molecular target: T3, Human IL-18BP (amino acids 31-194), …; assay: on-yeast binding isotherms; KD ratio relative to WT IL-18
# [21] = molecular target: T3, Human IL-18BP (amino acids 31-194), …; assay: SPR; KD(IL-18BP)/KD(IL-18Rα) normalized to WT IL-18
# [22] = molecular target: T3, Human IL-18BP (amino acids 31-194), …; assay: SPR, immobilized biotinylated hIL-18BP, representative sensorgram FIG. 5B; representative sensorgram, FIG. 5B; single run, not the average
# Protocol: as §4, §2
# [23] = molecular target: T4, Human IL-18Rα ectodomain (amino acids …); assay: SPR (Biacore T100), receptor captured via biotin, IL-18 as analyte
# Protocol: as §2, §3
# [24] = molecular target: T3, Human IL-18BP (amino acids 31-194), …; assay: SPR; KD for IL-18BP over KD for IL-18Rα
# Protocol: as §2, §3
# [25] = molecular target: T3, Human IL-18BP (amino acids 31-194), …; assay: on-yeast binding isotherms; KD ratio relative to WT IL-18; yeast-displayed variant; ratio normalized to WT, from the 20 µM placeholder
# [26] = molecular target: T3, Human IL-18BP (amino acids 31-194), …; assay: on-yeast binding isotherms; 20 µM used for NBD; yeast-displayed variant, flow cytometry; ratio computed with 20 µM put in for NBD
binder,measurement,setting,value
"SEQ ID NO: 70 (murine DR-IL-18 variant mA7) (ligand, Engineered variant) YFGRLHCTTAVIRNINDQVLFVDKRQPVFEDMTDIDQSASEPQTRLIIYAYGDNRVRGKAVTLSVKDSKMSTLSCKNKIISFEEMDPPENIDDIQSDLIFFQKRVPGHNKMEFESSLYEGHFLACQKEDDAFKLILKKKDENGDKSVMFTLTNLHQS",Kd,[1],13.5 nM
same,KD ratio IL-18BP/IL-18Rα,[2],> 741
same,KD ratio IL-18BP/IL-18Rα,[3],63200
same,Dissociation Constant Ratio normalized to WT IL-18,[4],3.45e+07
same,Kd,[5],> 1000 nM
same,Kd,[6],13900 nM
same,IL-18 BP:Rα Dissociation Constant Ratio,[7],3.5e+07
same,Kd,[8],0.22 nM
same,Dissociation Constant Ratio normalized to WT IL-18,[9],> 3930
"SEQ ID NO: 34 (human DR-IL-18 variant hCS1) (ligand, Engineered variant) YFGKLESKLSVIRNLNDQVLFIDQGNRPLFEDMTDSDCRDNAPRTIFIISTYKDSQPRGKAVTISVKCEKISTLSCENKIISFKEMNPPDNIKDTKSDIIFFQRDVPGHKHKMQFESSSYEGYFLACEKERDLFKLILKKEDELGDRSIMFTVQNED",Kd,[10],11.8 nM
same,Kd,[11],8 nM
same,Kd,[12],710 nM
same,Kd,[13],146 nM
same,KD ratio IL-18BP/IL-18Rα,[14],300
same,Dissociation Constant Ratio normalized to WT IL-18,[15],3720
same,Kd,[16],19.4 nM
same,EC50,[17],> 1000 nM
same,KD1 (first of two fitted dissociation constants),[18],36.7 nM
same,Kd,[19],19300 nM
same,Dissociation Constant Ratio normalized to WT IL-18,[20],1020
same,IL-18 BP:Rα Dissociation Constant Ratio,[21],3020
same,Kd,[22],15.2 nM
same,Kd,[23],8.05 nM
same,KD ratio IL-18BP/IL-18Rα,[24],2.41
"SEQ ID NO: 35 (human DR-IL-18 variant hCS2) (ligand, Engineered variant) YFGKLESKLSVIRNLNDQVLFIDQGNRPLFEDMTDSDCRDNAPRTIFIISTYKDKQPRAKAVTISVKCEKISTLSCENKIISFKEMNPPDNIKDTKSDIIFFQRDVPGHKHKMQFESSSYEGYFLACEKERDLFKLILKKEDELGDRSIMFTIQNED",Kd,[13],92 nM
same,Dissociation Constant Ratio normalized to WT IL-18,[25],> 741
same,KD ratio IL-18BP/IL-18Rα,[26],> 219
same,Kd,[23],13.1 nM

# — patent publication US20230277625A1 (SIMCHA IL 18, published 2023)
